For series [1], the target named is Plasmodium vivax cell-traversal protein for ookinetes and sporozoites (PvCelTOS), amino acids 36-196 (Plasmodium vivax). Description: AUC; sedimentation equilibrium, 10°C, 150 mM NaCl, 10 mM HEPES pH 7.4, 12,000 and 15,000 rpm; PfCelTOS at 25, 36 and 46 µM, PvCelTOS at 29, 41 and 53 µM; single component model.
Series [2] deals with the molecule itself. Described as above.

By stoichiometry N is commonly meant the number of molecules, sites or subunits per partner or assembly.

In turn, “Plasmodium vivax cell-traversal protein for ookinetes and sporozoites (PvCelTOS), amino acids 36-196 (domain or fragment)” registered a stoichiometry N in series [1] of 2.

B1: Plasmodium falciparum cell-traversal protein for ookinetes and sporozoites (PfCelTOS), amino acids 25-182 (domain or fragment)
chain: FRGNNGHNSSSSLYNGSQFIEQLNNSFTSAFLESQSMNKIGDDLAETISNELVSVLQKNSPTFLESSFDIKSEVKKHAKSMLKELIKVGLPSFENLVAENVKPPKVDPATYGIIVPVLTSLFNKVETAVGAKVSDEIWNYNSPDVSESEESLSDDFFD
notes: CelTOS of Plasmodium falciparum, UniProtKB Q8I5P1, amino acids 25-182, codon-optimized gene; No cleavage of the hexahistidine tag is described; the same preparation is detected with an anti-His antibody in the lipid strip assay, so the tag was probably kept; also called Antigen 2; source: E. coli, purified (Nickel-NTA chromatography, gel filtration on Superdex 200)
As to B1, the “stoichiometry N” value in series [2] was determined as 2.

The values are drawn from publication PMC5132341, “Malaria parasite CelTOS targets the inner leaflet of cell membranes for pore-dependent disruption” (eLife, 2016).
